Data: patent US20190212291

How the values were obtained:
[1] = target: PEG-T50-Q
[2] = target: PEG-T49-Q
[3] = target: PEG-T54-Q
[4] = target: PEG-T40-Q
[5] = target: PEG-T41-Q
[6] = target: PEG-T53-Q
[7] = target: T1, PEG-T7-Q
T1 chain: GGPLGVRGKKC

[8] = target: PEG-T58-Q
[9] = target: PEG-T51-Q

B1: KLK14 (protein)
chain: IIGGHTCTRSSQPWQAALLAGPRRRFLCGGALLSGQWVITAAHCGRPILQVALGKHNLRRWEATQQVLRVVRQVTHPNYNSRTHDNDLMLLQLQQPARIGRAVRPIEVTQACASPGTSCRVSGWGTISSPIARYPASLQCVNINISPDEVCQKAYPRTITPGMVCAGVPQGGKDSCQGDSGGPLVCRGQLQGLVSWGMERCALPGYPGVYTNLCKYRSWIEETMRDK
- Top hit (cleavage of PEG-coupled FRET substrate by recombinant proteases) [1]: KLK14
- Top hit (cleavage of PEG-coupled FRET substrate by recombinant proteases) [2]: KLK14

B2: ADAM12 (protein)
chain: ETLKATKYVELVIVADNREFQRQGKDLEKVKQRLIEIANHVDKFYRPLNIRIVLVGVEVWNDMDKCSVSQDPFTSLHEFLDWRKMKLLPRKSHDNAQLVSGVYFQGTTIGMAPIMSMCTADQSGGIVMDHSDNPLGAAVTLAHELGHNFGMNHDTLDRGCSCQMAVEKGGCIMNASTGYPFPMVFSSCSRKDLETSLEKGMGVCLFNLPEVRESFGGQKCGNRFVEEGEECDCGEPEECMNRCCNATTCTLKPDAVCAHGLCCEDCQLKPAGTACRDSSNSCDLPEFCTGASPHCPANVYLHDGHSCQDVDGYCYNGICQTHEQQCVTLWGPGAKPAPGICFERVNSAGDPYGNCGKVSKSSFAKCEMRDAKCGKIQCQGGASRPVIGTNAVSIETNIPLQQGGRILCRGTHVYLGDDMPDPGLVLAGTKCADGKICLNRQCQNISVFGVHECAMQCHGRGVCNNRKNCHCEAHWAPPFCDKFGFGGSTDSGPIRQADNQG
- Top hit (cleavage of PEG-coupled FRET substrate by recombinant proteases) [3]: ADAM12
- Second hit (cleavage of PEG-coupled FRET substrate by recombinant proteases) [4]: ADAM12
- Top hit (cleavage of PEG-coupled FRET substrate by recombinant proteases); additional note: Poorly cleaved [5]: ADAM12

B3: KLK12 (protein)
chain: IFNGTECGRNSQPWQVGLFEGTSLRCGGVLIDHRWVLTAAHCSGSRYWVRLGEHSLSQLDWTEQIRHSGFSVTHPGYLGASTSHEHDLRLLRLRLPVRVTSSVQPLPLPNDCATAGTECHVSGWGITNHPRNPFPDLLQCLNLSIVSHATCHGVYPGRITSNMVCAGGVPGQDACQGDSGGPLVCGGVLQGLVSWGSVGPCGQDGIPGVYTYICKYVDWIRMIMRNN
- Second hit (cleavage of PEG-coupled FRET substrate by recombinant proteases) [1]: KLK12

B4: MMP26 (protein)
chain: TSISPGRCKWNKHTLTYRIINYPHDMKPSAVKDSIYNAVSIWSNVTPLIFQQVQNGDADIKVSFWQWAHEDGWPFDGPGGILGHAFLPNSGNPGVVHFDKNEHWSASDTGYNLFLVATHEIGHSLGLQHSGNQSSIMYPTYWYHDPRTFQLSADDIQRIQHLYGEKCSSDIP
- Top hit (cleavage of PEG-coupled FRET substrate by recombinant proteases) [4]: MMP26
- substrate cleavage [4]: T40 and T51 are cleaved by MMP26 and KLK4, respectively
- Second hit (cleavage of PEG-coupled FRET substrate by recombinant proteases) [6]: MMP26
- Second hit (cleavage of PEG-coupled FRET substrate by recombinant proteases) [7]: MMP26

B5: PRSS3 (protein)
chain: IVGGYTCEENSLPYQVSLNSGSHFCGGSLISEQWVVSAAHCYKTRIQVRLGEHNIKVLEGNEQFINAAKIIRHPKYNRDTLDNDIMLIKLSSPAVINARVSTISLPTTPPAAGTECLISGWGNTLSFGADYPDELKCLDAPVLTQAECKASYPGKITNSMFCVGFLEGGKDSCQRDSGGPVVCNGQLQGVVSWGHGCAWKNRPGVYTKVYNYVDWIKDTIAANS
- Second hit (cleavage of PEG-coupled FRET substrate by recombinant proteases) [8]: PRSS3
- Second hit (cleavage of PEG-coupled FRET substrate by recombinant proteases) [2]: PRSS3

B6: MMP11 (protein)
chain: FVLSGGRWEKTDLTYRILRFPWQLVQEQVRQTMAEALKVWSDVTPLTFTEVHEGRADIMIDFARYWHGDDLPFDGPGGILAHAFFPKTHREGDVHFDYDETWTIGDDQGTDLLQVAAHEFGHVLGLQHTTAAKALMSAFYTFRYPLSLSPDDCRGVQHLYGQPWPTVTSRTPALG
- Top hit (cleavage of PEG-coupled FRET substrate by recombinant proteases) [6]: MMP11

B7: KLK4 (protein)
chain: IINGEDCSPHSQPWQAALVMENELFCSGVLVHPQWVLSAAHCFQNSYTIGLGLHSLEADQEPGSQMVEASLSVRHPEYNRPLLANDLMLIKLDESVSESDTIRSISIASQCPTAGNSCLVSGWGLLANGRMPTVLQCVNVSVVSEEVCSKLYDPLYHPSMFCAGGGHDQKDSCNGDSGGPLICNGYLQGLVSFGKAPCGQVGVPGVYTNLCKFTEWIEKTVQAS
- Top hit (cleavage of PEG-coupled FRET substrate by recombinant proteases) [9]: KLK4
- substrate cleavage [9]: T40 and T51 are cleaved by MMP26 and KLK4, respectively
